From paper PMC5760710, “The evolution of substrate discrimination in macrolide antibiotic resistance enzymes” (Nature Communications, 2018) come the findings set out here.

≈ marks a conversion by molar mass, not a printed value.

The target of data set [1] is T1, MphH (Brachybacterium faecium, UniProt C7MEP1).
T1 construct: pMCSG53, N-terminal His6 tag and TEV site, crystallized
Kind of data set: X-ray crystal structure. Format: binding. To be noted: nucleotide site; GDP + Pi; crystallized with 5 mM azithromycin and 5 mM GMPPCP.

Data set [2] has as its system T2, E. coli BW25113 ΔbamBΔtolC.
T2 construct: BW25113 ΔbamBΔtolC empty vector pGDP4
Kind of data set: microbe, parasite or virus in culture. To be noted: Escherichia coli, BW25113, 24 h; empty vector. As for the experimental part: mphB was codon optimized, synthetized as a gBlock (IDT) and cloned into pET28a with an N-terminal histidine tag. The codon optimized mphB sequence is in Supplementary Table 17. mphI was previously cloned into pET22b[36]. pGDP4 is a derivative of pET28a with the multiple-cloning site under the control of the constitutive lac promoter. mphI was subcloned into pGDP4 using the XbaI and XhoI restriction sites. E. coli was routinely cultured on LB-Lennox (Bioshop) at 37 °C overnight, and either 100 µg mL^−1 ampicillin or 50 µg mL^−1 kanamycin was used for plasmid selection. E. coli TOP10 (Invitrogen) was used for routine cloning experiments and susceptibility testing of mphs cloned into pGDP4. E. coli BL21(DE3) (Stratagene, USA)was used for protein overexpression experiments. E. coli BW25113 ΔbamBΔtolC is an antibiotic hypersensitive, and was used for susceptibility testing of Mphs cloning into pGDP4. Antibiotic susceptibility testing was performed according to the Clinical and Laboratory Standards Institute guidelines[74] for determining minimal inhibitory concentration (MIC) in 96-well plates (Sarstedt, Germany) in duplicate. MIC values were reproducible. A saline suspension of OD600 of 0.1 was made from 2–3 colonies of a fresh overnight, and diluted 1:200 into Mueller-Hinton Broth (BD Biosciences). […] Susceptibility assays were performed at least two independent times.

Data set [3] has as its system T3, MphI.
T3 construct: full-length, His-tagged in pET22b, expressed in E. coli BL21(DE3), Ni-NTA purified; primers span nt 1-927
Nature of the data set: PK/LDH-coupled continuous assay. To be noted: 10 mM MgCl2, 40 mM KCl, pH 7.5. Format: biochemical, Paenibacillus sp. LC231.

Data set [4] addresses T4, MphB (Escherichia coli, UniProt A0A0H3EUF3).
T4 construct: codon-optimized gene, N-terminal His tag in pET28a, expressed in E. coli BL21(DE3), Ni-NTA purified
Nature of the data set: biochemical. Also on record: PK/LDH-coupled continuous assay of macrolide phosphorylation; steady-state kinetics, NADH absorbance. As to the method:
(§1) Steady-state kinetics for Mphs were measured using the continuous PK/LDH-coupled assay[27],[32],[36],[71]. Reactions were performed in 96-well plates (Nunc, Thermo Scientific) using Spectramax Plus384 (Molecular Devices) in duplicate. Individual reactions were 100 µL and contained 50 mM HEPES pH 7.5, 40 mM KCl, 10 mM MgCl2, 0.2 mM NADH, 3.5 mM PEP, and 4.8 U PK/LDH (pyruvate kinase/lactate dehydrogenase). […] For determining the Km for macrolides, GTP was maintained at 200 µM and macrolides were varied between 0.49 µM and 1000 µM. Enzyme efficiency varied considerably between substrates, and therefore some enzymes were used at different concentrations depending on the substrate in order to produce a linear range suitable for Km determination. These concentrations were as follows; MphB 140 nM (most substrates), MphB 36 nM (josamycin), MphI 45 nM (descladinose macrolides), MphI 1.44 µM (C3 cladinose macrolides), Azi_1.1 90 nM (all substrates), Ery_1 (all substrates), MphK 680 nM (all substrates), MphIS111R/T166E/P211L 90 nM (descladinose macrolides), MphIS111R/T166E/P211L 1.43 µM (C3 cladinose macrolides), MphIM40A/S111R/T166E 22 nM (descladinose macrolides), MphIM40A/S111R/T166E 430 nM (C3 cladinose macrolides), MphIS111R/T166E 22 nM (descladinose macrolides), MphIS111R/T166E 1.43 µM (C3 cladinose macrolides). Enzyme kinetics experiments were performed at least two independent times. Steady-state kinetics of Mphs

Data set [5] has as its system CC[C@H]1OC(=O)[C@H](C)[C@@H](O[C@H]2C[C@@](C)(OC)[C@@H](O)[C@H](C)O2)[C@H](C)[C@@H](O[C@@H]2O[C@H](C)C[C@H](N(C)C)[C@H]2O)[C@](C)(O)C[C@@H](C)CN(C)[C@H](C)[C@@H](O)[C@]1(C)O. Nature of the data set: PK/LDH-coupled continuous assay. Format: biochemical, Escherichia coli. The settings on record: 200 uM GTP, 10 mM MgCl2, 40 mM KCl, pH 7.5.
The subject of data set [6] is CC[C@H]1OC(=O)[C@H](C)C(=O)[C@H](C)[C@@H](O[C@@H]2O[C@H](C)C[C@H](N(C)C)[C@H]2O)[C@](C)(OC)C[C@@H](C)C(=O)[C@H](C)[C@H]2N(CCCCn3cnc(-c4cccnc4)c3)C(=O)O[C@]12C. Nature of the data set: PK/LDH-coupled continuous assay. Type of data set: biochemical, Escherichia coli. The settings on record: 200 uM GTP, 10 mM MgCl2, 40 mM KCl, pH 7.5.
Data set [7] concerns Nc1nc2c(ncn2[C@@H]2O[C@H](COP(=O)(O)OP(=O)(O)OP(=O)(O)O)[C@@H](O)[C@H]2O)c(=O)[nH]1. Nature of the data set: PK/LDH-coupled continuous assay. Type of data set: biochemical, Escherichia coli. The settings on record: 100 uM telithromycin, 10 mM MgCl2, 40 mM KCl, pH 7.5.
In data set [8] the test system is CC[C@H]1OC(=O)[C@H](C)[C@@H](O[C@H]2C[C@@](C)(OC)[C@@H](O)[C@H](C)O2)[C@H](C)[C@@H](O[C@@H]2O[C@H](C)C[C@H](N(C)C)[C@H]2O)[C@](C)(O)C[C@@H](C)C(=O)[C@H](C)[C@@H](O)[C@]1(C)O. Kind of data set: PK/LDH-coupled continuous assay. Format: biochemical, Escherichia coli. The settings on record: 200 uM GTP, 10 mM MgCl2, 40 mM KCl, pH 7.5.
For data set [9], the system named is CC[C@H]1OC(=O)C[C@@H](O)[C@H](C)[C@@H](O[C@@H]2O[C@H](C)[C@@H](O[C@H]3C[C@@](C)(O)[C@@H](O)[C@H](C)O3)[C@H](N(C)C)[C@H]2O)[C@@H](CC=O)C[C@@H](C)C(=O)/C=C/C(C)=C/[C@@H]1CO[C@@H]1O[C@H](C)[C@@H](O)[C@@H](OC)[C@H]1OC. Kind of data set: purified protein, by the assay type. Also noted: continuous PK/LDH-coupled NADH kinase assay, steady-state Km, macrolide or GTP varied. The settings on record: pH 7.5. As for the experimental part:
as §1, with “times.” for “times. Steady-state kinetics of Mphs”

The test system of data set [10] is CC[C@H]1OC(=O)[C@H](C)[C@@H](O[C@H]2C[C@@](C)(OC)[C@@H](O)[C@H](C)O2)[C@H](C)[C@@H](O[C@@H]2O[C@H](C)C[C@H](N(C)C)[C@H]2O)[C@](C)(O)C[C@@H](C)/C(=N\OCOCCOC)[C@H](C)[C@@H](O)[C@]1(C)O. Nature of the data set: purified protein, by the assay type. Also noted: continuous PK/LDH-coupled NADH kinase assay, steady-state Km, macrolide or GTP varied. To be noted: pH 7.5. As to the method:
as §1, with “times.” for “times. Steady-state kinetics of Mphs”

In data set [11] the test system is CC[C@H]1OC(=O)[C@H](C)[C@@H](O[C@H]2C[C@@](C)(OC)[C@@H](O)[C@H](C)O2)[C@H](C)[C@@H](O[C@@H]2O[C@H](C)C[C@H](N(C)C)[C@H]2O)[C@](C)(O)C[C@@H](C)CN(C)[C@H](C)[C@@H](O)[C@]1(C)O. Kind of data set: PK/LDH-coupled continuous assay. The settings on record: 200 uM GTP, 10 mM MgCl2, 40 mM KCl, pH 7.5. Format: biochemical, Bacillus subtilis.
Data set [12] deals with CC[C@H]1OC(=O)[C@H](C)C(=O)[C@H](C)[C@@H](O[C@@H]2O[C@H](C)C[C@H](N(C)C)[C@H]2O)[C@](C)(OC)C[C@@H](C)C(=O)[C@H](C)[C@H]2N(CCCCn3cnc(-c4cccnc4)c3)C(=O)O[C@]12C. Nature of the data set: PK/LDH-coupled continuous assay. The settings on record: 200 uM GTP, 10 mM MgCl2, 40 mM KCl, pH 7.5. Type of data set: biochemical, Bacillus subtilis.
Data set [13] deals with Nc1nc2c(ncn2[C@@H]2O[C@H](COP(=O)(O)OP(=O)(O)OP(=O)(O)O)[C@@H](O)[C@H]2O)c(=O)[nH]1. Kind of data set: PK/LDH-coupled continuous assay. Type of data set: biochemical, Bacillus subtilis. To be noted: 100 uM telithromycin, 10 mM MgCl2, 40 mM KCl, pH 7.5.

For `Nc1nc2c(ncn2[C@@H]2O[C@H](COP(=O)(O)OP(=O)(O)O)[C@@H](O)[C@H]2O)c(=O)[nH]1` [GDP], the X-ray crystal structure result in data set [1] is “MphH (native) GDP + Pi complex (5UXC)”.
The term Km denotes the concentration of substrate that gives half-maximal velocity. `CC[C@H]1OC(=O)[C@H](C)[C@@H](O[C@H]2C[C@@](C)(OC)[C@@H](O)[C@H](C)O2)[C@H](C)[C@@H](O[C@@H]2O[C@H](C)C[C@H](N(C)C)[C@H]2O)[C@](C)(O)C[C@@H](C)C(=O)[C@H](C)[C@@H](O)[C@]1(C)O` [erythromycin] had an MIC in data set [2] of 0.5 µg/mL (≈ 0.681 µM). Moreover, in data set [3] (200 uM GTP), the Km was 110 ± 10 µM.
`CC[C@H]1OC(=O)[C@H](C)[C@@H](O[C@H]2C[C@@](C)(OC)[C@@H](O)[C@H](C)O2)[C@H](C)[C@@H](O[C@@H]2O[C@H](C)C[C@H](N(C)C)[C@H]2O)[C@](C)(OC)C[C@@H](C)C(=O)[C@H](C)[C@@H](O)[C@]1(C)O` [Clarithromycin]: the MIC in data set [2] came to 0.5 µg/mL (≈ 0.668 µM).
What is called Ki is a dissociation constant, usually derived from enzyme kinetics or from competition with a known ligand. A high value points to lower affinity. In the case of `CC[C@H]1OC(=O)C[C@@H](O)[C@H](C)[C@@H](O[C@@H]2O[C@H](C)[C@@H](O[C@H]3C[C@@](C)(O)[C@@H](O)[C@H](C)O3)[C@H](N(C)C)[C@H]2O)[C@@H](CC=O)C[C@@H](C)C(=O)/C=C/C(C)=C/[C@@H]1CO[C@@H]1O[C@H](C)[C@@H](O)[C@@H](OC)[C@H]1OC` [Tylosin], the Ki in data set [4] was found to be 350 ± 160 µM. For the same compound, the MIC in data set [2] turned out to be 2 µg/mL (≈ 2.18 µM).
Usually kcat stands for the maximal rate divided by the concentration of active sites. “MphB (Escherichia coli O83:H1 str. NRG 857C)”: the Km in data set [5] is 2.9 ± 0.36 µM; in data set [6], 6.6 ± 1.8 µM; in data set [7] it was 8.3 ± 0.45 µM; in [8] it was 1.6 ± 0.2 µM. For the same compound, the kcat in [5] was determined as 0.189 ± 0.004 s⁻¹; in data set [6], 0.77 ± 0.04 s⁻¹; in [7], 0.602 ± 0.008 s⁻¹; in data set [8], 0.0412 ± 0.0009 s⁻¹.
Usually kcat/Km stands for the turnover number divided by the Michaelis constant. For “MphK (Bacillus subtilis subsp. subtilis str. 168)”, the Km worked out at 6.3 ± 2.4 µM in data set [9]; 100 ± 25 µM in data set [10]; 940 ± 320 µM in [11]; 4.2 ± 0.45 µM in data set [12]; 17 ± 1 µM in data set [13]. Besides, the kcat stood at 0.0022 ± 0.0002 s⁻¹ in data set [9]; 0.005 ± 0.0004 s⁻¹ in [10]; 0.025 ± 0.005 s⁻¹ in [11]; 0.056 ± 0.001 s⁻¹ in data set [12]; 0.0491 ± 0.0004 s⁻¹ in [13]. For the same compound, the kcat/Km in data set [9] came out at 350 M⁻¹ s⁻¹; in [10] it was 49 M⁻¹ s⁻¹.
For the compound `NC[C@H]1O[C@H](O[C@H]2[C@H](O)[C@@H](O[C@H]3O[C@H](CO)[C@@H](O)[C@H](N)[C@H]3O)[C@H](N)C[C@@H]2N)[C@H](O)[C@@H](O)[C@@H]1O` [Kanamycin], the MIC in data set [2] was found to be 1 µg/mL (≈ 2.06 µM).
On to `CC[C@H]1OC(=O)[C@H](C)[C@@H](O[C@H]2C[C@@](C)(OC)[C@@H](O)[C@H](C)O2)[C@H](C)[C@@H](O[C@@H]2O[C@H](C)C[C@H](N(C)C)[C@H]2O)[C@](C)(O)C[C@@H](C)/C(=N\OCOCCOC)[C@H](C)[C@@H](O)[C@]1(C)O` [roxithromycin], for which affinity in [4] was put at a Ki of 960 ± 510 µM. The Km in data set [3] (200 uM GTP) came to 32 ± 4 µM.
Compound `CC[C@H]1OC(=O)[C@H](C)C(=O)[C@H](C)[C@@H](O[C@@H]2O[C@H](C)C[C@H](N(C)C)[C@H]2O)[C@](C)(OC)C[C@@H](C)C(=O)[C@H](C)[C@H]2N(CCCCn3cnc(-c4cccnc4)c3)C(=O)O[C@]12C` [telithromycin] registered an MIC in [2] of 0.125 µg/mL (≈ 0.154 µM). The Km in data set [3] (200 uM GTP) was 3 ± 0.5 µM.
`Nc1nc2c(ncn2[C@@H]2O[C@H](COP(=O)(O)OP(=O)(O)OP(=O)(O)O)[C@@H](O)[C@H]2O)c(=O)[nH]1` [GTP]: the Km in [3] (100 uM telithromycin) was 10 ± 1 µM.
